The target in the test is dimeric oxygen-evolving photosystem II complex isolated from WT T. elongatus (Thermosynechococcus elongatus (endogenous in T. elongatus BP1)) (UniProt P0A444). Put plainly: co-purification by two-step anion-exchange chromatography, immunoblotting; PSII complexes isolated from WT T. elongatus membranes (Kern et al. 2005); semi-quantitative immunoblotting of thylakoids and PSII against recombinant protein standards. A general note: A western blot detects proteins with antibodies after separation by electrophoresis.

Consider 1 molecule from publication PMC4180030.

B1: CyanoQ (Tll2057) from Thermosynechococcus elongatus (natural protein)
chain: CGGPSATTPPPPTYSELQITRIQDYLRDIEKNAERFADLEVSVAKGDWQEARNIMRGPLGEMLMDMRALNRNLLAKDQPTPTALTRALTDDFLKIDQGADLDSVTVAQEGFREAEADFKAYLNSLPELS
In the case of B1, the stoichiometry N (CyanoQ per PSII monomer) turned out to be 0.4.
